Results: publication PMC12493188

Tests used:
[1] = target: reaction centre-light harvesting 1 (RC-LH1) core complex, monomer, from Rba. sphaeroides strain DX13 (Rhodobacter sphaeroides 2.4.1) (UniProt P0C0Y8)
[2] = target: reaction centre-light harvesting 1 (RC-LH1) core complex, monomer, from Rba. sphaeroides strain DX13 (Rhodobacter sphaeroides 2.4.1) (UniProt P0C0Y8); remark: listed apart in the source

Row | Substance | cyt c 2 oxidation rate by RC-LH1 against NaCl (series up to 500 mM; optimum 100 mM in Table 1): activity left at 500 mM NaCl, percent of the maximum (% of maximum activity) [1] | K M of redox carrier oxidation by RC-LH1, steady-state turnover (0.125 µM RC-LH1, 50 µM UQ-2, 50 mM Tris-HCl pH 7.5, 100 mM NaCl, 0.03% β-DDM, 25°C) [2] | V max of redox carrier oxidation by RC-LH1, steady-state turnover (0.125 µM RC-LH1, 50 µM UQ-2, 50 mM Tris-HCl pH 7.5, 100 mM NaCl, 0.03% β-DDM, 25°C) [2] | cyt c 6 oxidation rate by RC-LH1 against NaCl (0-800 mM): optimum [NaCl] [2] | cyt c oxidation rate by RC-LH1 against NaCl (series up to 500 mM; observed optimum 50 mM): activity lost at 500 mM NaCl (% of activity lost) [1] | iso c 2 oxidation rate by RC-LH1 against NaCl (series up to 500 mM; optimum 50 mM in Table 1): activity left at 500 mM NaCl, percent of the maximum (% of maximum activity) [1] | Pc oxidation rate by RC-LH1 against NaCl (0-800 mM): optimum [NaCl] [2]
1 | cytochrome c 6 (cyt c 6) of Synechocystis sp. PCC 6803 (from UniProt P46445 36-120) (natural protein) | – | 66.3 µM | 37.8 e^−/RC/s | 700 mM | – | – | –
2 | cytochrome c (cyt c) from horse heart mitochondria (from UniProt P00004 1-105) (natural protein) | – | – | – | – | 90 | – | –

Continued, values first:

Row | cyt c 2 oxidation rate by RC-LH1 against NaCl (series up to 500 mM; optimum 100 mM in Table 1): activity left at 500 mM NaCl, percent of the maximum (% of maximum activity) [1] | K M of redox carrier oxidation by RC-LH1, steady-state turnover (0.125 µM RC-LH1, 50 µM UQ-2, 50 mM Tris-HCl pH 7.5, 100 mM NaCl, 0.03% β-DDM, 25°C) [2] | V max of redox carrier oxidation by RC-LH1, steady-state turnover (0.125 µM RC-LH1, 50 µM UQ-2, 50 mM Tris-HCl pH 7.5, 100 mM NaCl, 0.03% β-DDM, 25°C) [2] | cyt c 6 oxidation rate by RC-LH1 against NaCl (0-800 mM): optimum [NaCl] [2] | cyt c oxidation rate by RC-LH1 against NaCl (series up to 500 mM; observed optimum 50 mM): activity lost at 500 mM NaCl (% of activity lost) [1] | iso c 2 oxidation rate by RC-LH1 against NaCl (series up to 500 mM; optimum 50 mM in Table 1): activity left at 500 mM NaCl, percent of the maximum (% of maximum activity) [1] | Pc oxidation rate by RC-LH1 against NaCl (0-800 mM): optimum [NaCl] [2] | Substance
3 | 40 | 6.8 µM | 293 e^−/RC/s | – | – | – | – | cytochrome c 2 (cyt c 2) of Rba. sphaeroides (from UniProt P0C0X8 1-124) (natural protein)
4 | – | 5.88 µM | 230 e^−/RC/s | – | – | 20 | – | isocytochrome c 2 (iso c 2) of Rba. sphaeroides (natural protein)
5 | – | 209 µM | 7.92 e^−/RC/s | – | – | – | 700 mM | plastocyanin (Pc) of Synechocystis sp. PCC 6803, C-terminally StrepII-tagged (from UniProt P21697 29-126) (natural protein)
